Test results as given in patent publication US20260069707A1, “COMBINATION THERAPY WITH ANTIBODY-DRUG CONJUGATES AND HYALURONIDASES” (HALOZYME, INC., priority 2024, published 2026).
Values joined by “and” are separate entries in the source; they are usually repeats but may differ in a detail not shown here. Equal values may be shown once.

Columns and labels:
[1] = Calculation of drug to antibody ratio (DAR); conditions: for ADC:free Ab / free Ab:ADC: after adjustment factor
Text: The Drug-to-Antibody Ratio (DAR) is a critical parameter in antibody drug conjugate development, representing the average number of drug molecules attached to each antibody molecule.

[2] = Serum PK of Enhertu: total antibody, total ADC, free payload (HPLC-MS/MS), IV vs SC vs SC + rHuPH20; conditions: for TADC/TAB Ratio: listed as ADC
Description: Serum concentrations of total ADC, total antibody and Free Payload (unconjugated deruxtecan) were determined in three separate assays using HPLC with MS/MS detection.
A 20.0-μL sample aliquot was diluted 10-fold. A portion of the diluted sample was taken and processed using an immunoaffinity approach. […] The bound proteins were subjected to “on-bead” proteolysis with trypsin. After trypsin digestion, the samples were split into two portions. One portion used the characteristic peptide fragments produced from the trypsin digestion to quantitate total antibody. The second portion was further digested using papain to hydrolyze Dxd from the antibody to quantitate total ADC.
VVSV was used for the quantitation of total antibody concentrations, DSTY was used for the quantitation of intact antibody (troubleshooting purposes only), and Dxd was used for quantitating Total ADC concentrations.
A nominal free Dxd, concentration range of […] was chosen to quantitate samples. This assay requires a 50.0 μL porcine serum and skin aliquot. Samples were kept frozen at −80° C. prior to analysis.
A matrix aliquot is fortified with internal standard. Analytes are isolated through acidified protein precipitation. The eluate is evaporated under a nitrogen stream, and the remaining residue is reconstituted. Final extracts are analyzed via HPLC MS/MS detection using positive ion electrospray.

Substance: Sacituzumab govitecan [Trodelvy]
- % DAR remaining (which may be ~ADC/ total Ab) ([1]; Day 1): 76.2%
- % DAR remaining after adjustment factor to allow for variability (line without head) ([1]; Day 1): 68.6%
- ADC:free Ab ([1]; Day 1): 218.2%
- free Ab:ADC ([1]; Day 1): 45.8%
- % DAR remaining (which may be ~ADC/ total Ab) ([1]; Day 7): 42.9%
- % DAR remaining after adjustment factor to allow for variability (line without head) ([1]; Day 7): 34.3%
- ADC:free Ab ([1]; Day 7): 52.2%
- free Ab:ADC ([1]; Day 7): 191.7%
- % DAR remaining (which may be ~ADC/ total Ab) ([1]; Day 14): 31.0%
- % DAR remaining after adjustment factor to allow for variability (line without head) ([1]; Day 14): 24.8%
- ADC:free Ab ([1]; Day 14): 32.9%
- free Ab:ADC ([1]; Day 14): 303.8%
- % DAR remaining (which may be ~ADC/ total Ab) ([1]; Day 21): 23.8%
- % DAR remaining after adjustment factor to allow for variability (line without head) ([1]; Day 21): 19.0%
- ADC:free Ab ([1]; Day 21): 23.5%
- free Ab:ADC ([1]; Day 21): 425.0%
- Relative difference in serum AUC0-7, Free Payload, vs. ADC-IV ([2]; SC vs. ADC-IV): 83%
- Relative difference in serum AUC0-7, TAB, vs. ADC-IV ([2]; SC vs. ADC-IV): 59%
- Relative difference in serum AUC0-7, TADC, vs. ADC-IV ([2]; SC vs. ADC-IV): 60%
- Relative difference in serum Cmax, Free Payload, vs. ADC-IV ([2]; SC vs. ADC-IV): 70%
- Relative difference in serum Cmax, TAB, vs. ADC-IV ([2]; SC vs. ADC-IV): 28%
- Relative difference in serum Cmax, TADC, vs. ADC-IV ([2]; SC vs. ADC-IV): 29%
- TADC/TAB ratio - serum, mean ([2]; SC, 6 h): 1.054
- TADC/TAB ratio - serum, mean ([2]; SC, 24 h): 1.195
- TADC/TAB ratio - serum, mean ([2]; SC, 48 h): 0.796
- TADC/TAB ratio - serum, mean ([2]; SC, 72 h): 0.806
- TADC/TAB ratio - serum, mean ([2]; SC, 96 h): 0.765
- TADC/TAB ratio - serum, mean ([2]; SC, 168 h): 1.028
- SC/IV, mean AUC0-7, ADC ([2]; minipig serum): 60%
- SC/IV, mean AUC0-7, Ab ([2]; minipig serum): 59%
- SC/IV, mean AUC0-7, Payload ([2]; minipig serum): 83%
- SC/IV, mean Cmax, ADC ([2]; minipig serum): 29%
- SC/IV, mean Cmax, Ab ([2]; minipig serum): 28%
- SC/IV, mean Cmax, Payload ([2]; minipig serum): 70%
- ADC/Ab ratio, mean AUC0-7 ([2]; minipig serum, IV): 86%
- ADC/Ab ratio, mean Cmax ([2]; minipig serum, IV): 93%
- ADC/Payload ratio, mean AUC0-7 ([2]; minipig serum, IV): 116066%
- ADC/Payload ratio, mean Cmax ([2]; minipig serum, IV): 201037%
- ADC/Ab ratio, mean AUC0-7 ([2]; minipig serum, SC): 87%
- ADC/Ab ratio, mean Cmax ([2]; minipig serum, SC): 96%
- ADC/Ab ratio, mean Tmax ([2]; minipig serum, SC): 60%
- ADC/Payload ratio, mean AUC0-7 ([2]; minipig serum, SC): 83512%
- ADC/Payload ratio, mean Cmax ([2]; minipig serum, SC): 83474%
- ADC/Payload ratio, mean Tmax ([2]; minipig serum, SC): 57%
- AUC0-7, free payload in serum ([2]; pig, in vivo, iv): 0.04 µg·days/mL
- AUC0-7, total ADC in serum ([2]; pig, in vivo, iv): 47.73 µg·days/mL
- AUC0-7, total antibody in serum ([2]; pig, in vivo, iv): 55.38 µg·days/mL
- AUC0-7 free payload ([2]; pig, in vivo, iv): 0.04 µg·days/mL
- AUC0-7 total ADC (TADC) ([2]; pig, in vivo, iv): 47.73 µg·days/mL
- AUC0-7 total antibody (TAB) ([2]; pig, in vivo, iv): 55.38 µg·days/mL
- Cmax free payload ([2]; pig, in vivo, iv): 10 ng/mL
- Cmax total ADC (TADC) ([2]; pig, in vivo, iv): 25120 ng/mL
- Cmax total antibody (TAB) ([2]; pig, in vivo, iv): 27000 ng/mL
- Cmax, free payload in serum ([2]; pig, in vivo, iv): 10 ng/mL
- Cmax, total ADC in serum ([2]; pig, in vivo, iv): 25120 ng/mL
- Cmax, total antibody in serum ([2]; pig, in vivo, iv): 27000 ng/mL
- Tmax free payload ([2]; pig, in vivo, iv): 0 h
- Tmax total ADC (TADC) ([2]; pig, in vivo, iv): 0 h
- Tmax total antibody (TAB) ([2]; pig, in vivo, iv): 0 h
- Tmax, free payload in serum ([2]; pig, in vivo, iv): 0 h
- Tmax, total ADC in serum ([2]; pig, in vivo, iv): 0 h
- Tmax, total antibody in serum ([2]; pig, in vivo, iv): 0 h
- Total ADC concentration in the serum of minipigs ([2]; pig, in vivo, iv, 0 h): 25.12 µg/mL
- Total ADC Result ([2]; pig, in vivo, iv, 5 mL): <0.100 µg/mL
- Total ADC concentration in the serum of minipigs ([2]; pig, in vivo, iv, 5 mL, 6 h): 21.40 µg/mL
- Total ADC concentration in the serum of minipigs ([2]; pig, in vivo, iv, 5 mL, 24 h): 12.80 µg/mL
- Total ADC Result ([2]; pig, in vivo, iv, 6 h): 21.4 µg/mL
- Total ADC Result ([2]; pig, in vivo, iv, 24 h): 12.8 µg/mL
- Total ADC Result ([2]; pig, in vivo, iv, 48 h): 7.28 µg/mL
- Total ADC concentration in the serum of minipigs ([2]; pig, in vivo, iv, 48 h): 7.28 µg/mL
- Total ADC Result ([2]; pig, in vivo, iv, 72 h): 5.04 µg/mL
- Total ADC concentration in the serum of minipigs ([2]; pig, in vivo, iv, 72 h): 5.04 µg/mL
- Total ADC Result ([2]; pig, in vivo, iv, 96 h): 3.91 µg/mL
- Total ADC concentration in the serum of minipigs ([2]; pig, in vivo, iv, 96 h): 3.91 µg/mL
- Total ADC Result ([2]; pig, in vivo, iv, 168 h): 1.70 µg/mL
- Total ADC concentration in the serum of minipigs ([2]; pig, in vivo, iv, 168 h): 1.70 µg/mL
- Tmax total ADC (TADC) ([2]; pig, in vivo, sc): 24 h
- Tmax, total ADC in serum ([2]; pig, in vivo, sc): 24 h
- Total ADC Result ([2]; pig, in vivo, sc, 0 h): <0.100 µg/mL
- Total ADC concentration in the serum of minipigs ([2]; pig, in vivo, sc, 5 mL, 6 h): 4.08 µg/mL
- Total ADC concentration in the serum of minipigs ([2]; pig, in vivo, sc, 5 mL, 24 h): 7.27 µg/mL
- Total ADC concentration in the serum of minipigs ([2]; pig, in vivo, sc, 48 h): 5.17 µg/mL
- Total ADC concentration in the serum of minipigs ([2]; pig, in vivo, sc, 72 h): 4.35 µg/mL
- Total ADC concentration in the serum of minipigs ([2]; pig, in vivo, sc, 96 h): 3.74 µg/mL
- Total ADC concentration in the serum of minipigs ([2]; pig, in vivo, sc, 168 h): 2.04 µg/mL
- TADC/Free Payload, AUC0-7 ([2]; serum, IV): 116066%
- TADC/Free Payload, Cmax ([2]; serum, IV): 201037%
- TADC/TAB, AUC0-7 ([2]; serum, IV): 86%
- TADC/TAB, Cmax ([2]; serum, IV): 93%
- TADC/TAB Ratio ([2]; serum, IV, 6 h, individual animal): 0.92 and 0.918
- TADC/TAB Ratio ([2]; serum, IV, 24 h, individual animal): 0.87 and 0.871
- TADC/TAB Ratio ([2]; serum, IV, 48 h, individual animal): 0.80 and 0.804
- TADC/TAB Ratio ([2]; serum, IV, 72 h, individual animal): 0.88 and 0.877
- TADC/TAB Ratio ([2]; serum, IV, 96 h, individual animal): 0.77 and 0.773
- TADC/TAB Ratio ([2]; serum, IV, 168 h, individual animal): 0.99 and 0.994
- TADC/Free Payload, AUC0-7 ([2]; serum, SC): 83512%
- TADC/Free Payload, Cmax ([2]; serum, SC): 83474%
- TADC/Free Payload, Tmax ([2]; serum, SC): 57%
- TADC/TAB, AUC0-7 ([2]; serum, SC): 87%
- TADC/TAB, Cmax ([2]; serum, SC): 96%
- TADC/TAB, Tmax ([2]; serum, SC): 60%
- TADC/TAB Ratio ([2]; serum, SC, 6 h, individual animals): 1.01 and 1.13 and 1.03 and 1.006 and 1.129 and 1.026
- TADC/TAB Ratio ([2]; serum, SC, 24 h, individual animals): 1.55 and 0.84 and 1.19 and 1.546 and 0.845 and 1.194
- TADC/TAB Ratio ([2]; serum, SC, 48 h, individual animals): 0.81 and 0.82 and 0.76 and 0.808 and 0.823 and 0.756
- TADC/TAB Ratio ([2]; serum, SC, 72 h, individual animals): 0.76 and 0.72 and 0.93 and 0.763 and 0.721 and 0.934
- TADC/TAB Ratio ([2]; serum, SC, 96 h, individual animals): 0.74 and 0.73 and 0.82 and 0.744 and 0.731 and 0.819
- TADC/TAB Ratio ([2]; serum, SC, 168 h, individual animals): 1.20 and 0.89 and 0.99 and 1.204 and 0.891 and 0.989
